Measured values as given in patent US20120149881A1.

Molecular target: human IgE with the M1′ sequence (long form of membrane IgE) expressed on transduced BJAB or Daudi cells (human) (UniProt P01854)
Test: number printed in the titration panel; FIG. 3M calls these numbers 'Scatchard Results' (BJAB-Long cells)

Sequence of human IgE with the M1′ sequence (long form of membrane IgE) expressed on transduced BJAB or Daudi cells (human) (P01854 116-546 I515L limits assumed): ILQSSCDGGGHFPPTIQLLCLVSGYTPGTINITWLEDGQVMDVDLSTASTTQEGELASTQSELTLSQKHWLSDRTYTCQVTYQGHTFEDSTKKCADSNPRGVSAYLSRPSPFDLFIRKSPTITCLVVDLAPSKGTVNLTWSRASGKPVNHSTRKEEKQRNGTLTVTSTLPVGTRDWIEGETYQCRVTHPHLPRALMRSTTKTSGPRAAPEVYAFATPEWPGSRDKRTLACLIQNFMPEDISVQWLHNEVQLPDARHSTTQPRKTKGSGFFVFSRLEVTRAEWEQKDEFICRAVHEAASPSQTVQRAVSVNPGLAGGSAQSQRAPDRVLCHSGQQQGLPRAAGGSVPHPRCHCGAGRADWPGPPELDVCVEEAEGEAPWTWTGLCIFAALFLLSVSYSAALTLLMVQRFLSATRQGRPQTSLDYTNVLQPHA

Kd: 0.04 nM
Substance: anti-human IgE antibody MAE11
